This note sets out measurements from paper doi:10.1101/2024.12.18.629124.

As a reminder, the Kd is the equilibrium constant for the complex coming apart.

Assay in all cases: SPR
A general note: In SPR one partner is held on a chip, and binding of the other changes the refractive index at the surface.

Test [1] has as its target GST-Staufen FL (Drosophila melanogaster) (UniProt P25159).
Test [2] deals with Tm1 FL (Drosophila melanogaster).
The target of test [3] is Tm1 1-335 (Drosophila melanogaster).
For test [4], the target named is Staufen dsRBD3-4-L4 (aa 578-951) (Drosophila melanogaster) (UniProt P25159).

“Khc-Tm1 complex (from UniProt P17210 1-975)”: the Kd in test [1] stood at 13 nM.
“Staufen dsRBD3-4-5-C-term (domain or fragment)” yielded a Kd in test [2] of 152 nM.
Substance “Staufen dsRBD3-4-L4 (aa 578-951) (from UniProt P25159 578-951) (domain or fragment)” yielded a Kd in test [3] of 224 nM.
The substance Tm1 1-213 (domain or fragment) came in with a Kd in test [4] of 495 nM.
Same read-out and setting: the same measure for Tm1 1-213 L93Y (domain or fragment): 1420 nM.
With Tm1 1-335 (domain or fragment), the Kd in test [4] stood at 262 nM; in test [1] it was 386 nM.
In test [1], Tm1 FL (natural protein) displayed a Kd of 86.6 nM.
